Among the data in the supplement of paper PMC10567573 are protein stability index values, retold here.

This data set in a line: protein stability index of a GFP-peptide fusion (GPS, HEK-293T) (PSI 1-6); higher = more stable. The settings on record: c terminus: a fixed tail appended.
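Further: lentivirally expressed fusions sorted by FACS into six bins by GFP to DsRed ratio, PSI derived from sequencing read proportions per bin multiplied by bin number.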

As for NSISSDKEATVPCTEILTEKKDTI, under “parent: IOH80698_58”, the protein stability index was 5.37.
With LTSDLYAPMVAGALARLGTVTVIS [SLC25A39 WT], the protein stability index (parent: IOH63154_27) came to 2.94.
For SKPKTFQAYLDDCHRRYSCAHCRA [YPEL3 WT], the protein stability index (parent: IOH80494_8) came out at 1.87.
On to FTETNNHWPQGPTGPPGPPGPMGP [EMID1 WT], for which the protein stability index (parent: IOH81855_48) came out at 2.31.
Consider STTALGDKQRKANESKGTRESWDS [TCEB3B WT], for which, under “parent: IOH63382_68”, the protein stability index worked out at 3.77.
Regarding KRTYWPDLDAKIREALVLRSVRVR, the protein stability index (parent: IOH63495_45) worked out at 2.02.
For YVEVKEGKTWKQICDKHWTAKNSR, the protein stability index (parent: IOH81790_35) amounted to 2.24.
With FSLKTFKRKSEVERAVKRMRHLST, under “parent: IOH81883_19”, the protein stability index is 2.06.
With HISSCKLGPQVSLDPMKNVTCENG, the protein stability index (parent: IOH81790_46) stood at 3.95.
On to LKGAFPARLKKVLIVGAPIWFRVP, for which the protein stability index (parent: IOH82149_30) worked out at 2.96.
With CSWKGATKQRIQDQKVPYIFRDNQ [CHIT1 WT], the protein stability index (parent: IOH63601_52) worked out at 2.59.
Regarding IDFLRVVRNQQSLAVSNMGARSKG, for the setting “parent: IOH82149_81”, the protein stability index stood at 2.4.
Turning to SVIEPVQESSFRSRKIAVEDENDL, under “parent: IOH80698_41”, the protein stability index was found to be 5.18.
As for FSPDGPSRFRKAYKPEQPLVRLRG, the protein stability index (parent: IOH81790_52) amounted to 1.81.
Turning to HVDPEEPWSPCSARFITDFLDNGY, the protein stability index (parent: IOH81847_67) was 1.84.
As for TQHLPRECLPENLGGYVKIDLATW, where the note is “parent: IOH82149_38”, the protein stability index was found to be 1.88.
In the case of FIVDILQFLDIGPDVTRVGLLQYG, the protein stability index (parent: IOH81883_14) amounted to 2.92.
As to GRKKYDIDPRNGIPKLTPGDNPYM, the protein stability index (parent: IOH63376_32) was 3.52.
Turning to YPEQSKGFHKAGSMLPPVNFSIVP, the protein stability index (parent: IOH63376_36) is 1.94.
Turning to RLLRFSSQIHNNGQSDFRPKNGRH, the protein stability index (parent: IOH81790_100) worked out at 2.72.
For the protein FDKEWVAKQTKRMLDMKVNPIQGL [COX4I1 WT], for the setting “parent: IOH62819_23”, the protein stability index came out at 1.75.
As to MVHVARLLLLLLTFFLRTDAETPP [PTPRD WT], where the note is “parent: IOH82190_1”, the protein stability index was 2.92.
Turning to VTYMNMTAYNKGRLQSSFWIVDKQ, under “parent: IOH63495_20”, the protein stability index was determined as 2.36.
GSLPWQGLKADTLKERYQKIGDTK [CSNK1G1 WT]: the protein stability index (parent: IOH82133_42) is 4.1.
Consider ELRNVQDVVEDYKKRYEEEINKRT, for which the protein stability index (parent: IOH63384_35) was 3.49.
For FSEIRETSAKVNWMPPPSRADSFK, the protein stability index (parent: IOH81617_33) worked out at 3.45.
Turning to TASTKNCMVGYDMGATRCDFTLSK, the protein stability index (parent: IOH80553_117) is 2.15.
In the case of DCAGSPQKPLCASDGRTFLSRCEF, the protein stability index (parent: IOH81799_8) was determined as 2.54.
In the case of FGSRSLYSLGGVRSLNVASGSGKS, for the setting “parent: IOH63384_8”, the protein stability index stood at 1.86.
In the case of PGVHRRYSALREESAKDWETSPLP, the protein stability index (parent: IOH82170_4) came to 4.19.
Turning to LLQRELMVPGTRHSAVLRDLRSGT, the protein stability index (parent: IOH81617_23) turned out to be 2.54.
For KKPPEESTCFERPCFKWYTSPWSE [ADAMTSL2 WT], the protein stability index (parent: IOH80445_141) stood at 2.4.
Turning to QKPLCASDGRTFLSRCEFQRAKCK, for the setting “parent: IOH81799_9”, the protein stability index is 2.71.
Regarding RNALENIRKEMKLLEQAGSLKGSL [CRYL1 WT], the protein stability index (parent: IOH81349_8) was determined as 3.44.
Regarding TDDSYSCHCLKGFTLNPDKKTCRR, the protein stability index (parent: IOH81883_64) came out at 2.25.
Regarding EILGCPLPDPNNYYHRRNEMTTTD, the protein stability index (parent: IOH80553_49) was 3.32.
Take NKWTVQYNVSPLSWNVAVKFLMAR: where the note is “parent: IOH82149_6”, the protein stability index was determined as 2.09.
In the case of DMVSNIELPTRIHEEVYFEPSSSK, the protein stability index (parent: IOH80698_88) came out at 3.89.
With YSEYPECCVDVKPISQEKIESERA [DUSP5 WT], the protein stability index (parent: IOH62976_23) stood at 4.09.
As to ILFSLPPALDWDSVHVPGPHAMTI, under “parent: IOH82149_45”, the protein stability index amounted to 2.54.
Turning to GKQAPRKKAQGKTQQNRKLTDFYP, the protein stability index (parent: IOH80936_28) was determined as 2.67.
Take SFRKFRYGYNNVVTIPAGATHILV: the protein stability index (parent: IOH81847_116) worked out at 2.6.
In the case of LLQRELAQEDSLNKLALQYGCKVA [LYSMD4 WT], the protein stability index (parent: IOH63099_13) turned out to be 1.92.
Regarding YAGNLHESGVHGALLALDENFDHN, for the setting “parent: IOH82170_95”, the protein stability index came to 2.51.
Regarding QKELQDVGQSLRIKEQEVCKLQEQ [SASS6 WT], under “parent: IOH63533_44”, the protein stability index stood at 5.02.
Consider VMTLPSDLRKHRRKLLSPVSREEN, for which, for the setting “parent: IOH82170_31”, the protein stability index was determined as 3.53.
Take KKAQGKTQQNRKLTDFYPVRRSSR: the protein stability index (parent: IOH80936_29) was determined as 2.19.
For VNVPGSFVCQCYSGYALAEDGKRC, the protein stability index (parent: IOH81883_50) was determined as 1.99.
SLGKQKVFIIRKSLLDELMEVQHF [SOAT2 WT]: the protein stability index (parent: IOH63195_17) was 2.25.
As for TLDGYGIHPKSIDLDNYFTARRLL [NFE2L1 WT], the protein stability index (parent: IOH81649_11) is 1.93.
In the case of PALETQPQGDEEDIASRYPTLWTE, the protein stability index (parent: IOH81799_32) is 4.26.
FVVEYHGDLIEITDAKKREALYAQ: the protein stability index (parent: IOH80936_41) worked out at 2.1.
Consider WIVDKQHVYIGSAGLDWQSLGQMK, for which, where the note is “parent: IOH63495_23”, the protein stability index is 1.79.
